The target in test [1] is human interleukin-1 beta (IL-1β) protein standard (R&D Systems 201-LB-005) (human) (UniProt P01584). The experiment in a line: conventional Simoa sandwich (capture beads + detector m2), 300 pM SβG/15 min; IL-1B at 6.25 fM.
For test [2] the target is unchanged. Nature of the test: conventional Simoa sandwich (capture beads + detector m2), 150 pM SβG/5 min; IL-1B at 1.563 fM.
For test [3] the target is unchanged. The experiment in a line: dSimoa sandwich (capture beads + detector m2), 300 pM streptavidin-DNA/15 min; IL-1B at 0.5 fM.
Test [4] shares this target. Nature of the test: conventional Simoa sandwich (capture beads + detector m2), 300 pM SβG/15 min; IL-1B at 1.563 fM.
Test [5] shares this target. The experiment in a line: conventional Simoa sandwich (capture beads + detector m2), 150 pM SβG/5 min; IL-1B at 0.391 fM.
For test [6] the target is unchanged. The experiment in a line: dSimoa sandwich (capture beads + detector m2), 300 pM streptavidin-DNA/15 min; IL-1B at 100 fM.
Test [7] shares this target. The experiment in a line: dSimoa sandwich (capture beads + detector m2), 300 pM streptavidin-DNA/15 min; IL-1B at 0.01 fM.
For test [8] the target is unchanged. The experiment in a line: dSimoa sandwich (capture beads + detector m2), 300 pM streptavidin-DNA/15 min; IL-1B at 0.05 fM.
The target is the same in test [9]. The experiment in a line: dSimoa sandwich (capture beads + detector m2), 300 pM streptavidin-DNA/15 min; IL-1B at 10 fM.
Test [10] shares this target. The experiment in a line: conventional Simoa sandwich (capture beads + detector m2), 150 pM SβG/5 min; IL-1B at 100 fM.
Test [11] shares this target. Nature of the test: conventional Simoa sandwich (capture beads + detector m2), 150 pM SβG/5 min; IL-1B at 0.098 fM.
The target is the same in test [12]. Nature of the test: dSimoa sandwich (capture beads + detector m2), 300 pM streptavidin-DNA/15 min; IL-1B at 0.1 fM.
Test [13] shares this target. Nature of the test: conventional Simoa sandwich (capture beads + detector m2), 300 pM SβG/15 min; IL-1B at 0.391 fM.
The target is the same in test [14]. The experiment in a line: conventional Simoa sandwich (capture beads + detector m2), 300 pM SβG/15 min; IL-1B at 0.098 fM.
Test [15] has the same target. The experiment in a line: conventional Simoa sandwich (capture beads + detector m2), 300 pM SβG/15 min; IL-1B at 25 fM.
The target is the same in test [16]. The experiment in a line: conventional Simoa sandwich (capture beads + detector m2), 300 pM SβG/15 min; IL-1B at 100 fM.
For test [17] the target is unchanged. The experiment in a line: conventional Simoa sandwich (capture beads + detector m2), 300 pM SβG/15 min; IL-1B at 0.024 fM.
For test [18] the target is unchanged. The experiment in a line: dSimoa sandwich (capture beads + detector m2), 300 pM streptavidin-DNA/15 min; IL-1B at 1 fM.
Test [19] shares this target. The experiment in a line: conventional Simoa sandwich (capture beads + detector m2), 150 pM SβG/5 min; IL-1B at 25 fM.
Test [20] addresses IL-6 protein standard (R&D Systems 206-IL-010) (UniProt P05231). Nature of the test: conventional Simoa sandwich on HD-1 (capture beads + detection antibody m11, SβG); IL-6 at 0.1 fM.
Sequence of UniProt P05231 (P05231 30-212 limits assumed): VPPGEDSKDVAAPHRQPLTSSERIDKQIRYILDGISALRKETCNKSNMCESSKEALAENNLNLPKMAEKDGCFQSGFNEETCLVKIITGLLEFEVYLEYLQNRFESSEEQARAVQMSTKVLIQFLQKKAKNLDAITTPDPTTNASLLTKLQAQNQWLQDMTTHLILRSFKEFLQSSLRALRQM
For test [21] the target is unchanged. The experiment in a line: CARD-dELISA sandwich (capture beads + detection antibody m11, streptavidin-poly-HRP, tyramide); IL-6 at 100 fM.
Test [22] has the same target. The experiment in a line: CARD-dELISA sandwich (capture beads + detection antibody m11, streptavidin-poly-HRP, tyramide); IL-6 at 1 fM.
The target is the same in test [23]. Nature of the test: conventional Simoa sandwich on HD-1 (capture beads + detection antibody m11, SβG); IL-6 at 10 fM.
Test [24] has the same target. The experiment in a line: conventional Simoa sandwich on HD-1 (capture beads + detection antibody m11, SβG); IL-6 at 0.5 fM.
The target is the same in test [25]. Nature of the test: conventional Simoa sandwich on HD-1 (capture beads + detection antibody m11, SβG); IL-6 at 50 fM.
For test [26] the target is unchanged. Nature of the test: CARD-dELISA sandwich (capture beads + detection antibody m11, streptavidin-poly-HRP, tyramide); IL-6 at 50 fM.
For test [27] the target is unchanged. Nature of the test: conventional Simoa sandwich on HD-1 (capture beads + detection antibody m11, SβG); IL-6 at 1 fM.
The target is the same in test [28]. Nature of the test: CARD-dELISA sandwich (capture beads + detection antibody m11, streptavidin-poly-HRP, tyramide); IL-6 at 0.1 fM.
Test [29] has the same target. The experiment in a line: conventional Simoa sandwich on HD-1 (capture beads + detection antibody m11, SβG); IL-6 at 100 fM.
Test [30] shares this target. The experiment in a line: CARD-dELISA sandwich (capture beads + detection antibody m11, streptavidin-poly-HRP, tyramide); IL-6 at 10 fM.
Test [31] has the same target. The experiment in a line: CARD-dELISA sandwich (capture beads + detection antibody m11, streptavidin-poly-HRP, tyramide); IL-6 at 0.5 fM.

Sequence of UniProt P01584 (P01584 117-269 limits assumed): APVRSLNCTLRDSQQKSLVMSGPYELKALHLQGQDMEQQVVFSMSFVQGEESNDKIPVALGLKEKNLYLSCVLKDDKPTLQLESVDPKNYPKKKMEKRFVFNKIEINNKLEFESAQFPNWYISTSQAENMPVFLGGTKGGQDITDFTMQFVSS

Take “IL-1β capture antibody (Biolegend 508202)”: the average AEB in test [1] came to 0.0714 AEB; in [2] it was 0.0222 AEB; in test [4], 0.0379 AEB; in test [5], 0.0135 AEB; in test [10], 0.721 AEB; in [11], 0.0108 AEB. The average AEB in test [13] stood at 0.029 AEB; in test [14], 0.0271 AEB; in test [15], 0.221 AEB; in [16] it was 0.767 AEB; in test [17], 0.0428 AEB; in test [19] it was 0.199 AEB. In addition, the average AMB turned out to be 0.0114 AMB in test [3]; 0.822 AMB in test [6]; 0.0044 AMB in [7]; 0.0054 AMB in test [8]; 0.0898 AMB in test [9]; 0.0051 AMB in [12]. Further, the average AMB in test [18] was determined as 0.0133 AMB.
Consider “IL-6 capture antibody (R&D Systems MAB206)”, for which the average AEB worked out at 0.005 AEB in [20]; 0.171 AEB in [21]; 0.0058 AEB in [22]; 0.111 AEB in [23]; 0.0098 AEB in test [24]; 0.522 AEB in [25]. Also, the average AEB turned out to be 0.0937 AEB in [26]; 0.0151 AEB in test [27]; 0.0031 AEB in test [28]; 1.03 AEB in test [29]; 0.0151 AEB in test [30]; 0.005 AEB in test [31].

(Values after patent US20230236179A1.)
